Paper PMC11457862, “Engineered cytokine/antibody fusion proteins improve IL-2 delivery to pro-inflammatory cells and promote antitumor activity” (JCI Insight, 2024)
Substitutions are numbered along the chain they refer to. Names may count otherwise. Blank lines part the entries; values can stand above or below the binder they belong to.

What was measured:
[1] = target: T1, biotinylated human IL-2 (amino acids 1-133, C-terminal biotin acceptor peptide) (human, UniProt P60568, biotin on the biotin acceptor peptide (BirA ligase)); test: BLI; same set-up as a1; equilibrium titration of the response at the end of the association phase, first-order fit (Figures 2 and 3, Supplemental Table 1); details: both partners purified
T1 construct: also called immobilized IL-2; hIL-2; source: HEK 293F, purified (Ni-NTA, biotinylated with BirA, SEC)

[2] = target: T1, biotinylated human IL-2 (amino acids …); test: BLI; same set-up as a3; equilibrium titration, first-order fit (Supplemental Figure 4A-C, Supplemental Table 4); details: both partners purified
[3] = target: T1, biotinylated human IL-2 (amino acids …); test: BLI; biotinylated human IL-2, IL-2Rα or IL-2Rβ on streptavidin tips (Octet Red96); soluble analyte in PBSA (PBS pH 7.2, 0.1% BSA), 300 s association; kinetic fit, 1:1 binding model; IL-2/602 Cx 2:1 by the legend (Supplemental Figure 2, Supplemental Table 1); details: both partners purified
[4] = target: T2, biotinylated mouse IL-2Rβ (Mus musculus, UniProt P16297, biotin); test: BLI; same set-up as a7; equilibrium titration, first-order fit (Supplemental Figure 6G,H, Supplemental Table 1); details: both partners purified
T2 construct: mouse IL-2 receptor beta; the supplementary methods describe only the human constructs; probably an ectodomain with BAP like them; also called mIL-2Rβ
T2 sequence (P16297 27-539): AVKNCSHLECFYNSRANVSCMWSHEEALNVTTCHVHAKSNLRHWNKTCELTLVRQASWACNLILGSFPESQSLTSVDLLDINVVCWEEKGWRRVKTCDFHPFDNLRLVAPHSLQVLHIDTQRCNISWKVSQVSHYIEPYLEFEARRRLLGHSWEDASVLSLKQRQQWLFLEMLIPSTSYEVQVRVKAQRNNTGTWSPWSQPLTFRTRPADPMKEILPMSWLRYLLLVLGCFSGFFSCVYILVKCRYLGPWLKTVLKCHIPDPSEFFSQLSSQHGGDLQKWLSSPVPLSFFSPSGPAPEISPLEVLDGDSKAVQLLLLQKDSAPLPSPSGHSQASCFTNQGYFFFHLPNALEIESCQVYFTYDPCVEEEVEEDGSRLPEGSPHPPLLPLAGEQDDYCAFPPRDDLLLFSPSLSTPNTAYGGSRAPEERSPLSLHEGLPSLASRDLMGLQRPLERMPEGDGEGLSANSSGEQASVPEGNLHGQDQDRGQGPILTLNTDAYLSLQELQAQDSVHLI

[5] = target: T3, biotinylated mouse IL-2Rα (Mus musculus, UniProt P01590, biotin); test: as above; details: both partners purified
T3 construct: mouse IL-2 receptor alpha; the supplementary methods describe only the human constructs; probably an ectodomain with BAP like them; also called mIL-2Rα
T3 sequence (P01590 22-268): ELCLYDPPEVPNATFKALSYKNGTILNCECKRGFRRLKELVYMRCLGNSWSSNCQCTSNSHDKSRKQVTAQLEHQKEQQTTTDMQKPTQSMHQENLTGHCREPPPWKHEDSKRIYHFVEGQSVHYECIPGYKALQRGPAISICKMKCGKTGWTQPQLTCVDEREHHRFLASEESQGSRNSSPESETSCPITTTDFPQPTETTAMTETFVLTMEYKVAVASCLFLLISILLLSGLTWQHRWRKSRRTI

[6] = target: T1, biotinylated human IL-2 (amino acids …); test: BLI; biotinylated human IL-2 or IL-2Rβ on streptavidin tips; engineered 602 IC variants and controls in PBSA; kinetic fit, 1:1 binding model (Supplemental Figure 5, Supplemental Table 4); details: both partners purified
[7] = target: T1, biotinylated human IL-2 (amino acids …); test: BLI; biotinylated human IL-2 on streptavidin tips; scFvs, IL-2/antibody complexes (2:1) and ICs in PBSA; kinetic fit, 1:1 binding model (Supplemental Figure 6A,B, Supplemental Table 5); details: both partners purified
[8] = target: T1, biotinylated human IL-2 (amino acids …); test: BLI; same set-up as a5; equilibrium titration, first-order fit (Supplemental Figure 6C,D, Supplemental Table 5); details: both partners purified
[9] = target: T1, biotinylated human IL-2 (amino acids …); test: flow cytometry on cells; yeast displaying scFv incubated with 5 nM biotinylated IL-2 and titrated IL-2Rα in PBE buffer, 2 h, room temperature; detected with Alexa Fluor 647 streptavidin; details: one partner purified
[10] = target: T4, human IL-2 (human, UniProt P60568); test: BLI; scFvs with IL-2, kinetics; who was immobilised is not told in what was shown; details: both partners purified
T4 construct: Used soluble, immobilised on BLI tips and in the crystals; also called hIL-2; interleukin-2

Kd [1]: 6.3 ± 5.2 nM
Kd [2]: 3.7 ± 7.4 nM
Kd [3]: 0.13 ± 0.02 nM
koff [3]: 5.1e-05 s⁻¹
kon [3]: 382000 M⁻¹ s⁻¹
Kd [4]: > 10 µM
Kd [5]: > 10 µM
Kd [6]: 0.044 ± 0.05 nM
koff [6]: 2.8e-05 s⁻¹
kon [6]: 642000 M⁻¹ s⁻¹
B1: anti-human IL-2 antibody 602 (MAB602), recombinant mouse IgG2a kappa (antibody, V domains shown)
VH: EVQLQESGPGLVAPSQSLSITCTVSGFSLTNYDISWIRQPPGKGLEWLGVIWTGGGTNYNSGFMSRLSITKDNSKSQVFLKMNSLQTDDTAIYYCVRQGRTPYWGQGTLVTVSA
VL: DIQVTQSPSSLSVSLGDRVTITCKASKDIYNRLAWYQQKPGNAPRLLISGATSLETGVPSRFSGSGSGKDYTLTITSLQTEDVATYYCQQFWGTPYTFGGGTKLEIK
notes: mouse IgG2a heavy chain constant region; mouse kappa light chain constant region; mouse IgG2a kappa; source: HEK 293F, transient co-transfection, purified (Protein G, SEC); copies: 2 + 2

binding result [9]: binds
B4: yeast-displayed 602 scFv variant H2 (scFv, V domains shown)
VH: B1 VH with T101S
VL: B1 VL with Y30H, F91V
notes: also called H2 scFv; not shown: Aga2, N-terminal, kept

binding result [9]: binds
B5: yeast-displayed 602 scFv variant C5 (scFv, V domains shown)
VH: B1 VH
VL: B1 VL with F91T
notes: also called C5 scFv; not shown: Aga2, N-terminal, kept

binding result [9]: binds
B8: yeast-displayed 602 scFv variant E10 (scFv, V domains shown)
VH: B1 VH with T101A
VL: B1 VL with F91L
notes: also called E10 scFv; not shown: Aga2, N-terminal, kept

The remaining lines, values behind:

B2: 602 scFv (VH-[G4S]3-VL), soluble (scFv, V domains shown)
VH: B1 VH
VL: B1 VL
notes: the scFv chain of PDB 8SOZ; source: HEK 293F, purified (Ni-NTA, SEC)
Kd [7]: 1.94 ± 0.02 nM
koff [7]: 0.00067 s⁻¹
kon [7]: 361000 M⁻¹ s⁻¹
Kd [8]: 9 ± 8.59 nM

B3: F10 scFv (VH-[G4S]3-VL), soluble (scFv, V domains shown)
VH: B1 VH with T101S
VL: B1 VL with F91S, G93D
notes: the scFv chain of PDB 8SOW; source: HEK 293F, purified (Ni-NTA, SEC)
Kd [7]: 0.34 ± 0.01 nM
koff [7]: 0.000188 s⁻¹
kon [7]: 563000 M⁻¹ s⁻¹
Kd [8]: 6.12 ± 5.66 nM

B6: yeast-displayed 602 scFv variant A8 (scFv, V domains shown)
VH: B1 VH
VL: B1 VL with G93D, T97S
notes: also called A8 scFv; not shown: Aga2, N-terminal, kept
binding result [9]: binds

B7: F10 scFv (scFv, V domains shown)
VH: B1 VH with T101S
VL: B1 VL with F91S, G93D
notes: as the scFv of m13 with the stated changes; numbers count on the scFv (T99S in CDR3H, F91S and G93D in CDR3L, Kabat); soluble scFv used for BLI and for the crystal structure; also called variant F10
fold reduction in dissociation rate against 602 scFv [10]: 3.6 fold
